Results published in patent US20090208538A1.

Columns and labels:
[1] = molecular target: HLA-A*0201 (human); assay: iTopia affinity
[2] = molecular target: HLA-A*0201 (human); assay: iTopia net score
[3] = molecular target: HLA-A*0201 (human); assay: iTopia binding

ED50 [1]: 1000 nM | iScore [2]: 0.352 | binding vs positive control [3]: > 30%
Substance: cdr2 246-254 RALELEAV (peptide)
